Experimental findings from publication PMC8920335 are described below.

Data set [1] is described as follows: immunoblot after BMA or MG132 treatment. As to conditions: glycan lost; control: WT CGA. (Immunoblotting shows a protein as a band on a membrane.)
Data set [2] is described as follows: immunoblot of lysates and conditioned medium. The settings on record: glycan lost; control: WT CGA.

As to “CGA (glycoprotein hormone α polypeptide): N78Q”, the degradation_or_half_life entry in data set [1] was “changes”. For the same sequence, in data set [2], the expression_or_secretion result is given as “decreases”.

Consider “CGA (glycoprotein hormone α polypeptide): N52Q”, for which, in data set [1], the degradation_or_half_life entry is on record as “changes”. The expression_or_secretion entry in data set [2] is “decreases”. In the case of “CGA (glycoprotein hormone α polypeptide): N52Q/N78Q double mutant (DM)”, in data set [2], the expression_or_secretion entry was “decreases”.
